The values below come from paper PMC6444592, “Citrullination of HP1γ chromodomain affects association with chromatin” (Epigenetics & Chromatin, 2019).

Experiment [1] addresses T1, GST-HP1γR38/9A (full-length mouse HP1γ with alanine substitutions at amino acids 38 and 39) (mouse, UniProt P23198 1-183, R38/9A | R38/9A).
T1 construct: heterochromatin protein 1 gamma (HP1γ), mouse, full length, R38A and R39A (designed to mimic citrullination); also called double alanine mutant; source: E. coli, expressed as GST fusion protein (pGEX-2T), purified
Briefly: pull-down; H3K9me3 or unmethylated H3(1–16) peptides linked to Dynabeads MyOne streptavidin T1; eluted GST-HP1 in HBS-EP (300 mM NaCl, 10 mM HEPES KOH pH 7.4, 5 mM EDTA, 0.2% NP-40); SDS-PAGE, Coomassie-blue staining. The following applies: both partners purified.

For experiment [2], the target named is T2, GST-HP1γR38/9K (full-length mouse HP1γ with R38 and R39 mutated to lysine) (mouse, UniProt P23198 1-183, R38/9K | R38/9K).
T2 construct: heterochromatin protein 1 gamma (HP1γ), mouse, full length, R38K and R39K (retains the positive charge); source: E. coli, expressed as GST fusion protein (pGEX-2T), purified
The experiment is described as above. The settings on record: both partners purified.

T1 sequence (P23198 other isoform, or with tags, fused parts or gaps R38/9A | R38/9A | R38/9A | R38/9A): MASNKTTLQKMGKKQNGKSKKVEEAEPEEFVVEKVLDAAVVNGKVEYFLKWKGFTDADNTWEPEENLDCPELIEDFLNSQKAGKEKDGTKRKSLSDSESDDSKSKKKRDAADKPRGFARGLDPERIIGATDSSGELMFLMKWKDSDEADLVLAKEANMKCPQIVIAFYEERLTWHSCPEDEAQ
T2 sequence (P23198 other isoform, or with tags, fused parts or gaps R38/9K | R38/9K | R38/9K | R38/9K): as the sequence (P23198 other isoform, or with tags, fused parts or gaps R38/9A | R38/9A | R38/9A | R38/9A) above, with A38K, A39K counted along it

B1: H3K9me3(1–16) peptide (peptide)
peptide: ARTKQTARKSTGGKAP
modifications: trimethyl-lysine at K9 (K(me3)); biotin at the C-terminus
notes: histone H3, residues 1-16; also called methylated H3K9me3(1–16) peptides; H3K9me3 peptides
In the case of B1, the binding result in experiment [1] and in experiment [2] was “binds” in each case.
